Assay results as given in patent US9163227B2, “Anti-diabetic compounds” (PFIZER INC., priority 2011, dated 2015).

What was measured:
[1] = Stability of linkers L1-L4 conjugated to FGF21 (LC-MS); format: physicochemical; conditions: linker conjugated to FGF21ΔH-A129C
Protocol: The following experiment was performed to investigate the chemical stability over 2 weeks of the four linkers upon conjugation to FGF21: each linker was conjugated to FGF21, placed at +4° C. storage conditions, and aliquots were removed and quenched by freezing at specific time points, and linker stability was monitored by LCMS analysis.
The four linkers were dissolved in DMSO from lyophilized stock material. […] L1 was reacted with protein for 30 mins; L2, L3 and L4 were reacted for 2 hrs. The conjugation reaction was quenched by removal of excess linkers through size-exclusion resin. Conjugated FGF21ΔH-A129C protein was placed at +4° C. for stability storage. […] Analysis of linker stability was performed by LC-MS analysis to determine the relative amount of unconjugated protein, protein+linker conjugation, and single and double hydrolysis events of the conjugated protein+linker.
Linker hydrolysis is the critical analytical variable in this experiment. Hydrolysis was monitored by observing the subsequent addition of H2O to the FGF21-linker complex. A single addition of H2O, +(1) H2O, likely indicates the hydrolysis of the active AZD group that is present on all 4 linkers. The addition of a second H2O molecule, +(2) H2O, is a strong indicator of hydrolysis (eg—chemical instability) in the linker. L1 is particularly susceptible because of the presence of a maleimide functional group.

[2] = Hydrolysis of the reactive group of [SEQ ID NO:10-L1] over time; format: physicochemical; conditions: 4° C., FGF21 RP chromatography
Protocol: Fine Tune of Conjugation Conditions for FGF21-Linker: The laboratory scale-ups were performed at different scales with a variety of optimized buffers and pHs. […] Since hydrolysis of reactive group of SEQ ID NO:10-L1 occurs over time (Table 27), post activation diafiltration of SEQ ID NO:10-L1 should be operated at between about 2 and about 10° C. The amount of SEQ ID NO:10-L1 after post activation diafiltration varied in different experiments, and the difference could contribute to the variation of the conjugation efficiency for h38C2-[SEQ ID NO:10-L1]1. About 100 mM Phosphate pH about 6.3 gave the least aggregates and highest h38C2 remaining for recycle purpose.
The above sample was further passed through the UFDF to remove excess linker and TCEP. The membrane was sanitized with 1N NaOH for 30 min, drained, and equilibrated with 100 mM MES, pH 7.0. Buffer 100 mM MES, pH 7.0 was used for diafilteration (7× diafilteration). Diafiltration was done at 4 g/L retentate concentration. Foaming and splashing may be avoided during UF/DF. Hydrolysis of the reactive group of [SEQ ID NO:10-L1] occurred over the diafiltration process. The hold time for post-activation DF pool should be minimized. UF may be operated at 2-10° C. using 10K Sartorius Hydrosart membrane. The combined species [SEQ ID NO:10-L1] confirmed by FGF21 RP was down from 73% to 64% after UF/DF.

[3] = +4° C. storage, LC-MS, of total measured protein, 0 hrs

Molecule: CC1=CC(=O)N(CCOCCOCCC(=O)Nc2ccc(CCC(=O)N3CCC3=O)cc2)C1=O [Compound L3]
- 0 linker (unconjugated protein) [1, 3]: 19%
- 1 linker (protein+linker conjugation) ([1]; +4° C., 0 hrs): 45%
- +(1) H2O (single hydrolysis) ([1]; +4° C., 0 hrs): 30%
- +(2) H2O (double hydrolysis) ([1]; +4° C., 0 hrs): 6%
- 0 linker (unconjugated protein) ([1]; +4° C., 24 hrs): 18%
- 1 linker (protein+linker conjugation) ([1]; +4° C., 24 hrs): 47%
- +(1) H2O (single hydrolysis) ([1]; +4° C., 24 hrs): 27%
- +(2) H2O (double hydrolysis) ([1]; +4° C., 24 hrs): 8%
- 0 linker (unconjugated protein) ([1]; +4° C., 72 hrs): 19%
- 1 linker (protein+linker conjugation) ([1]; +4° C., 72 hrs): 43%
- +(1) H2O (single hydrolysis) ([1]; +4° C., 72 hrs): 30%
- +(2) H2O (double hydrolysis) ([1]; +4° C., 72 hrs): 8%
- 0 linker (unconjugated protein) ([1]; +4° C., 168 hrs): 19%
- 1 linker (protein+linker conjugation) ([1]; +4° C., 168 hrs): 43%
- +(1) H2O (single hydrolysis) ([1]; +4° C., 168 hrs): 29%
- +(2) H2O (double hydrolysis) ([1]; +4° C., 168 hrs): 8%
- 0 linker (unconjugated protein) ([1]; +4° C., 336 hrs): 20%
- 1 linker (protein+linker conjugation) ([1]; +4° C., 336 hrs): 43%
- +(1) H2O (single hydrolysis) ([1]; +4° C., 336 hrs): 29%
- +(2) H2O (double hydrolysis) ([1]; +4° C., 336 hrs (2 weeks)): 8%

Molecule: O=C(CCN1C(=O)C=CC1=O)NCCOCCOCCC(=O)Nc1ccc(CCC(=O)N2CCC2=O)cc1 [Compound L1, 3-(2,5-dioxo-2,5-dihydro-1H-pyrrol-1-yl)-N-(2-(2-(3-oxo-3-(4-(3-oxo-3-(2-oxoazetidin-1-yl)propyl)phenylamino)propoxy)ethoxy)ethyl)propanamide]
- 0 linker (unconjugated protein) [1, 3]: 13%
- 1 linker (protein+linker conjugation) ([1]; +4° C., 0 hrs): 49%
- +(1) H2O (single hydrolysis) ([1]; +4° C., 0 hrs): 30%
- +(2) H2O (double hydrolysis) ([1]; +4° C., 0 hrs): 8%
- 0 linker (unconjugated protein) ([1]; +4° C., 24 hrs): 14%
- 1 linker (protein+linker conjugation) ([1]; +4° C., 24 hrs): 41%
- +(1) H2O (single hydrolysis) ([1]; +4° C., 24 hrs): 34%
- +(2) H2O (double hydrolysis) ([1]; +4° C., 24 hrs): 11%
- 0 linker (unconjugated protein) ([1]; +4° C., 72 hrs): 14%
- 1 linker (protein+linker conjugation) ([1]; +4° C., 72 hrs): 40%
- +(1) H2O (single hydrolysis) ([1]; +4° C., 72 hrs): 35%
- +(2) H2O (double hydrolysis) ([1]; +4° C., 72 hrs): 11%
- 0 linker (unconjugated protein) ([1]; +4° C., 168 hrs): 10%
- 1 linker (protein+linker conjugation) ([1]; +4° C., 168 hrs): 33%
- +(1) H2O (single hydrolysis) ([1]; +4° C., 168 hrs): 40%
- +(2) H2O (double hydrolysis) ([1]; +4° C., 168 hrs): 18%
- 0 linker (unconjugated protein) ([1]; +4° C., 336 hrs): 12%
- 1 linker (protein+linker conjugation) ([1]; +4° C., 336 hrs): 28%
- +(1) H2O (single hydrolysis) ([1]; +4° C., 336 hrs): 41%
- +(2) H2O (double hydrolysis) ([1]; +4° C., 336 hrs (2 weeks)): 18%

Molecule: CC1=CC(=O)N(CCC(=O)NCCOCCOCCC(=O)Nc2ccc(CCC(=O)N3CCC3=O)cc2)C1=O [Compound L2]
- 0 linker (unconjugated protein) [1, 3]: 22%
- 1 linker (protein+linker conjugation) ([1]; +4° C., 0 hrs): 45%
- +(1) H2O (single hydrolysis) ([1]; +4° C., 0 hrs): 27%
- +(2) H2O (double hydrolysis) ([1]; +4° C., 0 hrs): 6%
- 0 linker (unconjugated protein) ([1]; +4° C., 24 hrs): 23%
- 1 linker (protein+linker conjugation) ([1]; +4° C., 24 hrs): 43%
- +(1) H2O (single hydrolysis) ([1]; +4° C., 24 hrs): 26%
- +(2) H2O (double hydrolysis) ([1]; +4° C., 24 hrs): 8%
- 0 linker (unconjugated protein) ([1]; +4° C., 72 hrs): 24%
- 1 linker (protein+linker conjugation) ([1]; +4° C., 72 hrs): 37%
- +(1) H2O (single hydrolysis) ([1]; +4° C., 72 hrs): 32%
- +(2) H2O (double hydrolysis) ([1]; +4° C., 72 hrs): 8%
- 0 linker (unconjugated protein) ([1]; +4° C., 168 hrs): 24%
- 1 linker (protein+linker conjugation) ([1]; +4° C., 168 hrs): 40%
- +(1) H2O (single hydrolysis) ([1]; +4° C., 168 hrs): 29%
- +(2) H2O (double hydrolysis) ([1]; +4° C., 168 hrs): 7%
- 0 linker (unconjugated protein) ([1]; +4° C., 336 hrs): 26%
- 1 linker (protein+linker conjugation) ([1]; +4° C., 336 hrs): 38%
- +(1) H2O (single hydrolysis) ([1]; +4° C., 336 hrs): 28%
- +(2) H2O (double hydrolysis) ([1]; +4° C., 336 hrs (2 weeks)): 8%

Molecule: CC1=CC(=O)N(CC2CCC(C(=O)NCCOCCOCCC(=O)Nc3ccc(CCC(=O)N4CCC4=O)cc3)CC2)C1=O (centres unmarked) [Compound L4]
- 0 linker (unconjugated protein) [1, 3]: 20%
- 1 linker (protein+linker conjugation) ([1]; +4° C., 0 hrs): 46%
- +(1) H2O (single hydrolysis) ([1]; +4° C., 0 hrs): 28%
- +(2) H2O (double hydrolysis) ([1]; +4° C., 0 hrs): 6%
- 0 linker (unconjugated protein) ([1]; +4° C., 24 hrs): 20%
- 1 linker (protein+linker conjugation) ([1]; +4° C., 24 hrs): 46%
- +(1) H2O (single hydrolysis) ([1]; +4° C., 24 hrs): 27%
- +(2) H2O (double hydrolysis) ([1]; +4° C., 24 hrs): 7%
- 0 linker (unconjugated protein) ([1]; +4° C., 72 hrs): 21%
- 1 linker (protein+linker conjugation) ([1]; +4° C., 72 hrs): 42%
- +(1) H2O (single hydrolysis) ([1]; +4° C., 72 hrs): 30%
- +(2) H2O (double hydrolysis) ([1]; +4° C., 72 hrs): 7%
- 0 linker (unconjugated protein) ([1]; +4° C., 168 hrs): 21%
- 1 linker (protein+linker conjugation) ([1]; +4° C., 168 hrs): 41%
- +(1) H2O (single hydrolysis) ([1]; +4° C., 168 hrs): 32%
- +(2) H2O (double hydrolysis) ([1]; +4° C., 168 hrs): 6%
- 0 linker (unconjugated protein) ([1]; +4° C., 336 hrs): 22%
- 1 linker (protein+linker conjugation) ([1]; +4° C., 336 hrs): 41%
- +(1) H2O (single hydrolysis) ([1]; +4° C., 336 hrs): 31%
- +(2) H2O (double hydrolysis) ([1]; +4° C., 336 hrs (2 weeks)): 6%

B1: [SEQ ID NO: 10-L1] (protein, listed as Homo sapiens)
chain: PIPDSSPLLQFGGQVRQRYLYTDDAQQTEAHLEIREDGTVGGAADQSPESLLQLKALKPGVIQILGVKTSRFLCQRPDGALYGSLHFDPEACSFRELLLEDGYNVYQSEAHGLPLHLPGNKSPHRDPCPRGPARFLPLPGLPPALPEPPGILAPQPPDVGSSDPLSMVGPSQGRSPSYAS
modifications: L1 linker attached
- % FGF21 ([2]; 0 hour): 13.4%
- % FGF21 dimer ([2]; 0 hour): 1.8%
- % Hydrolyzed reactive FGF21ΔH-A129C-L1 ([2]; 0 hour): 6.5%
- % Other ([2]; 0 hour): 1.6%
- % reactive FGF21ΔH-A129C-L1 ([2]; 0 hour): 76.7%
- % FGF21 ([2]; 1 hour): 13.2%
- % FGF21 dimer ([2]; 1 hour): 2.8%
- % Hydrolyzed reactive FGF21ΔH-A129C-L1 ([2]; 1 hour): 8.8%
- % Other ([2]; 1 hour): 1.6%
- % reactive FGF21ΔH-A129C-L1 ([2]; 1 hour): 73.6%
- % FGF21 ([2]; 2 hrs): 14.4%
- % FGF21 dimer ([2]; 2 hrs): 4.0%
- % Hydrolyzed reactive FGF21ΔH-A129C-L1 ([2]; 2 hrs): 10.6%
- % Other ([2]; 2 hrs): 1.9%
- % reactive FGF21ΔH-A129C-L1 ([2]; 2 hrs): 69.1%
- % FGF21 ([2]; 3 hrs): 13.3%
- % FGF21 dimer ([2]; 3 hrs): 4.1%
- % Hydrolyzed reactive FGF21ΔH-A129C-L1 ([2]; 3 hrs): 13.6%
- % Other ([2]; 3 hrs): 1.9%
- % reactive FGF21ΔH-A129C-L1 ([2]; 3 hrs): 67.1%
- % FGF21 ([2]; 4 hrs): 13.9%
- % FGF21 dimer ([2]; 4 hrs): 4.5%
- % Hydrolyzed reactive FGF21ΔH-A129C-L1 ([2]; 4 hrs): 14.9%
- % Other ([2]; 4 hrs): 1.8%
- % reactive FGF21ΔH-A129C-L1 ([2]; 4 hrs): 64.9%
- % FGF21 ([2]; 5 hrs): 14.3%
- % FGF21 dimer ([2]; 5 hrs): 5.0%
- % Hydrolyzed reactive FGF21ΔH-A129C-L1 ([2]; 5 hrs): 16.9%
- % Other ([2]; 5 hrs): 1.9%
- % reactive FGF21ΔH-A129C-L1 ([2]; 5 hrs): 61.9%
- % FGF21 ([2]; 6 hrs): 13.9%
- % FGF21 dimer ([2]; 6 hrs): 5.2%
- % Hydrolyzed reactive FGF21ΔH-A129C-L1 ([2]; 6 hrs): 18.8%
- % Other ([2]; 6 hrs): 1.8%
- % reactive FGF21ΔH-A129C-L1 ([2]; 6 hrs): 60.3%
- % FGF21 ([2]; 8 hrs): 14.5%
- % FGF21 dimer ([2]; 8 hrs): 5.7%
- % Hydrolyzed reactive FGF21ΔH-A129C-L1 ([2]; 8 hrs): 22.3%
- % Other ([2]; 8 hrs): 1.7%
- % reactive FGF21ΔH-A129C-L1 ([2]; 8 hrs): 55.8%
- % FGF21 ([2]; 10 hrs): 15.0%
- % FGF21 dimer ([2]; 10 hrs): 5.9%
- % Hydrolyzed reactive FGF21ΔH-A129C-L1 ([2]; 10 hrs): 25.0%
- % Other ([2]; 10 hrs): 1.8%
- % reactive FGF21ΔH-A129C-L1 ([2]; 10 hrs): 52.3%
